B1: ScPdc1 (Saccharomyces cerevisiae S288C) (protein)
chain: SEITLGKYLFERLKQVNVNTVFGLPGDFNLSLLDKIYEVEGMRWAGNANELNAAYAADGYARIKGMSCIITTFGVGELSALNGIAGSYAEHVGVLHVVGVPSISAQAKQLLLHHTLGNGDFTVFHRMSANISETTAMITDIATAPAEIDRCIRTTYVTQRPVYLGLPANLVDLNVPAKLLQTPIDMSLKPNDAESEKEVIDTILALVKDAKNPVILADACCSRHDVKAETKKLIDLTQFPAFVTPMGKGSIDEQHPRYGGVYVGTLSKPEVKEAVESADLILSVGALLSDFNTGSFSYSYKTKNIVEFHSDHMKIRNATFPGVQMKFVLQKLLTTIADAAKGYKPVAVPARTPANAAVPASTPLKQEWMWNQLGNFLQEGDVVIAETGTSAFGINQTTFPNNTYGISQVLWGSIGFTTGATLGAAFAAEEIDPKKRVILFIGDGSLQLTVQEISTMIRWGLKPYLFVLNNDGYTIEKLIHGPKAQYNEIQGWDHLSLLPTFGAKDYETHRVATTGEWDKLTQDKSFNDNSKIRMIEIMLPVFDAPQNLVEQAKLTAATNAKQ
notes: full-length ORF from genomic DNA, TDH3 promoter multi-copy plasmid in Pdc-deficient S. cerevisiae SOS5; no tag mentioned
B2: K. marxianus Pdc1 (Kluyveromyces marxianus) (protein)
chain: MSEITLGRYLFERLKQVEVQTIFGLPGDFNLSLLDKIYEVPGMRWAGNANELNAAYAADGYARLKGMACVITTFGVGELSALNGIAGSYAEHVGVLHVVGVPSISSQAKQLLLHHTLGNGDFTVFHRMSSNISETTAMITDINSAPSEIDRCIRTTYISQRPVYLGLPANLVDLKVPASLLETPIDLSLKPNDPEAENEVLETVLELIKDAKNPVILADACCSRHNVKAETKKLIDITQFPAFVTPMGKGSIDEQHPRFGGVYVGTLSSPEVKEAVESADLVLSVGALLSDFNTGSFSYSYKTKNIVEFHSDYIKVRNATFPGVQMKFVLQKLLTKVKDAAKGYKPVPVPHAPRDNKPVADSTPLKQEWVWTQVGKFLQEGDVVLTETGTSAFGINQTHFPNDTYGISQVLWGSIGFTGGATLGAAFAAEEIDPKKRVILFIGDGSLQLTVQEISTMIRWGLKPYLFVLNNDGYTIERLIHGETAQYNCIQSWKHLDLLPTFGAKDYEAVRVATTGEWNKLTTDKKFQENSKIRLIEVMLPVMDAPSNLVKQAQLTASINAKQE
notes: full-length ORF from genomic DNA, TDH3 promoter multi-copy plasmid in Pdc-deficient S. cerevisiae SOS5; no tag mentioned; ORF ends NAKQE by primer
B3: Pdc5 (Saccharomyces cerevisiae S288C) (protein)
chain: MSEITLGKYLFERLSQVNCNTVFGLPGDFNLSLLDKLYEVKGMRWAGNANELNAAYAADGYARIKGMSCIITTFGVGELSALNGIAGSYAEHVGVLHVVGVPSISSQAKQLLLHHTLGNGDFTVFHRMSANISETTAMITDIANAPAEIDRCIRTTYTTQRPVYLGLPANLVDLNVPAKLLETPIDLSLKPNDAEAEAEVVRTVVELIKDAKNPVILADACASRHDVKAETKKLMDLTQFPVYVTPMGKGAIDEQHPRYGGVYVGTLSRPEVKKAVESADLILSIGALLSDFNTGSFSYSYKTKNIVEFHSDHIKIRNATFPGVQMKFALQKLLDAIPEVVKDYKPVAVPARVPITKSTPANTPMKQEWMWNHLGNFLREGDIVIAETGTSAFGINQTTFPTDVYAIVQVLWGSIGFTVGALLGATMAAEELDPKKRVILFIGDGSLQLTVQEISTMIRWGLKPYIFVLNNNGYTIEKLIHGPHAEYNEIQGWDHLALLPTFGARNYETHRVATTGEWEKLTQDKDFQDNSKIRMIEVMLPVFDAPQNLVKQAQLTAATNAKQ
notes: as for B1
B4: Pdc6 (Saccharomyces cerevisiae S288C) (protein)
chain: SEITLGKYLFERLKQVNVNTIFGLPGDFNLSLLDKIYEVDGLRWAGNANELNAAYAADGYARIKGLSVLVTTFGVGELSALNGIAGSYAEHVGVLHVVGVPSISAQAKQLLLHHTLGNGDFTVFHRMSANISETTSMITDIATAPSEIDRLIRTTFITQRPSYLGLPANLVDLKVPGSLLEKPIDLSLKPNDPEAEKEVIDTVLELIQNSKNPVILSDACASRHNVKKETQKLIDLTQFPAFVTPLGKGSIDEQHPRYGGVYVGTLSKQDVKQAVESADLILSVGALLSDFNTGSFSYSYKTKNVVEFHSDYVKVKNATFLGVQMKFALQNLLKVIPDVVKGYKSVPVPTKTPANKGVPASTPLKQEWLWNELSKFLQEGDVIISETGTSAFGINQTIFPKDAYGISQVLWGSIGFTTGATLGAAFAAEEIDPNKRVILFIGDGSLQLTVQEISTMIRWGLKPYLFVLNNDGYTIEKLIHGPHAEYNEIQTWDHLALLPAFGAKKYENHKIATTGEWDALTTDSEFQKNSVIRLIELKLPVFDAPESLIKQAQLTAATNAKQ
notes: as for B1

Tests used:
CtPdc1 = system: T1, CtPdc1; assay: coupled ADH/NADH assay at […] nm, crude extract, Lineweaver-Burk; type: cell-based, Candida viswanathii (printed as Candida tropicalis); settings: pH 6.5 imidazole, 30 °C, 5 mM MgCl2, 0.2 mM TPP, 0.4 mM NADH; pyruvate 1.56-100 mM
T1 construct: gene PDC1; full-length ORF from genomic DNA, TDH3 promoter multi-copy plasmid in Pdc-deficient S. cerevisiae SOS5; no tag mentioned; ORF ends NAAQE by primer

[1] = substrate: CC(=O)C(=O)O; assay: cells, lysate or membranes; type: cell-based, Saccharomyces cerevisiae; settings: pH 6.5 imidazole, 30 °C, 5 mM MgCl2, 0.2 mM TPP, 0.4 mM NADH, pyruvate 1.56-100 mM
[2] = substrate: CC(=O)C(=O)O; assay: cells, lysate or membranes; type: cell-based, Kluyveromyces marxianus; settings: pH 6.5 imidazole, 30 °C, 5 mM MgCl2, 0.2 mM TPP, 0.4 mM NADH, pyruvate 1.56-100 mM

| Molecule | Km [1] | further results |
| --- | --- | --- |
| CC(=O)C(=O)O [pyruvate] | – | Km (CtPdc1): 2.7 mM |
| B1 | 4.7 mM | – |
| B2 | – | Km [2]: 7.7 mM |
| B3 | 9.9 mM | – |
| B4 | 8.2 mM | – |

— paper PMC5148919, “Enhanced production of 2,3-butanediol by engineered Saccharomyces cerevisiae through fine-tuning of pyruvate decarboxylase and NADH oxidase activities” (Biotechnology for Biofuels, 2016)
